Experimental data published in patent US20140315825A1 (GENEMEDICINE, published 2014).

Target: T1, soluble Wnt decoy receptor sLRP6E1E2 (FLAG-tagged E1 and E2 extracellular domains of LRP6) (Homo sapiens (Human), UniProt O75581 20-651)
T1 construct: Expressed in the assay cells from the adenoviral vector dE1-k35/sLRP6E1E2 and not added as purified protein; also called soluble LRP6 receptor; decoy Wnt receptor; not shown: FLAG tag
T1 sequence: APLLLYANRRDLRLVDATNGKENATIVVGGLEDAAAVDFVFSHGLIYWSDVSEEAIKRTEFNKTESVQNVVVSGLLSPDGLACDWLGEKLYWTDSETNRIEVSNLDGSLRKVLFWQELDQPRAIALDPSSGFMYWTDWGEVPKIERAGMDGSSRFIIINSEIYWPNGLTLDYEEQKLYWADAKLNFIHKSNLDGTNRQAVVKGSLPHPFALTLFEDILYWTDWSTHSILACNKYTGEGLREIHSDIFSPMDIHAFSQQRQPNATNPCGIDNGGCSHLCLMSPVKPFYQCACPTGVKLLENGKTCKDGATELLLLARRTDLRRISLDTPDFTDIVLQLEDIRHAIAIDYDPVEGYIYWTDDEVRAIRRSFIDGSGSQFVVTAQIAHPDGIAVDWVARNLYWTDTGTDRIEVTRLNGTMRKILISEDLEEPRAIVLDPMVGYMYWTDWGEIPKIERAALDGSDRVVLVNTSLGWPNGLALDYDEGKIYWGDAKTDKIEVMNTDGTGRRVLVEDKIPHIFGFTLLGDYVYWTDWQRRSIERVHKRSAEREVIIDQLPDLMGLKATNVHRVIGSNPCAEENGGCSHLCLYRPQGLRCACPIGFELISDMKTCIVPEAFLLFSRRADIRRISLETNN
Assay: immunoprecipitation of lysates of transduced H322 and H460 cells with anti-Wnt3a or anti-LRP6, then western blot
Description: FIG. 1 represents characterization of the decoy Wnt receptor sLRP6E1E2. FIG. 1a is schematic representation of the genomic structure of Ad vectors used. […] Cell culture supernatants were assessed with FLAG- or LRP6-specific Ab. (d) H322 and H460 cells were transduced with dE1-k35/LacZ or dE1-k35/sLRP6E1E2 (50 MOI) for 48 hr. Cell lysates were immunoprecipitated with antisera against Wnt3a (IP: Wnt3a) or LRP6 (IP: LRP6) followed by western blot (WB) analysis with the same antibodies.
Next, binding of sLRP6E1E2 to Wnt3a was assessed in cells transduced with dE1-k35/LacZ or dE1-k35/sLRP6E1E2. Cell lysates were immunoprecipitated with anti-Wnt3a or anti-LRP6 antibodies and analyzed by western blot.

B1: Wnt3a, endogenous in human non-small cell lung cancer cell lines H322 and H460 (ligand, UniProt P56704 19-352, looked up)
chain: SYPIWWSLAVGPQYSSLGSQPILCASIPGLVPKQLRFCRNYVEIMPSVAEGIKIGIQECQHQFRGRRWNCTTVHDSLAIFGPVLDKATRESAFVHAIASAGVAFAVTRSCAEGTAAICGCSSRHQGSPGKGWKWGGCSEDIEFGGMVSREFADARENRPDARSAMNRHNNEAGRQAIASHMHLKCKCHGLSGSCEVKTCWWSQPDFRAIGDFLKDKYDSASEMVVEKHRESRGWVETLRPRYTYFKVPTERDLVYYEASPNFCEPNPETGSFGTRDRTCNVSSHGIDGCDLLCCGRGHNARAERRREKCRCVFHWCCYVSCQECTRVYDVHTCK
notes: Present in cell lysates in the immunoprecipitation; also called Wnt 3a protein
  binding result: binds
